Measured values as given in the supplement of paper PMC7125110.
± gives the standard error. This sample holds only a part of the variants without activity.

B1: glmS ribozyme (parent)
chain: AUAAAAGCGCCAGAACUACAGAAAUGUAGUUGACGAGGAGGAGGUUUAUCGAAUUUUCGGCGGAUGCCUCCAAA

Variants of: B1
Assay: self-cleavage kobs at 2500 uM GlcN6P; higher = faster cleavage; RNA array
Settings: with glucosamine-6-phosphate
Procedure, shortened: (§1)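 Ribozyme variants carrying barcodes were transcribed in situ on sequenced MiSeq chips by E. coli RNA polymerase and tracked at 37 °C with a hybridised Cy3 probe. They were exposed to 40 μM to 10 mM glucosamine-6-phosphate in HEPES/KCl/Mg(OAc)2 buffer. kobs came from exponential decay fits of normalised per-tile medians, and kcat and KM from weighted Michaelis–Menten fits.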

AUAAAAGCGCCAGAACUACAGAAAUGUAGUUGAAGAGGAGGCGGUUUAUCGUAUUUUCGGCGGAUGCCUCAAAA [C34A A42C A52U C71A] and AUAAAAGCGCCAGAACUACAGAAAUGUAGUUGAAGAGGAGGAGGUUCAUCGAUUUUUCGGCGGAUGCCUCCAAA [C34A U47C A53U] cannot be ordered by “self-cleavage kobs at 2500 uM GlcN6P” value: under 1e-05 s⁻¹ for the first, under 1e-05 s⁻¹ for the second.

Compared with AUAAAAGCGCCAGAACUACAGAAAUGUAGUUGACGAGAAGGAGGUUUAUGGGAUUUUCGGCGGAUGCCUCCAAA [G38A C50G A52G], AUAAAAGCGCCAGAACUACAGAAAUGUAGUUGACGAUGUGGAGCUUUAUGGAAUUUUCGGCGGAUGCCUUCAAA [G37U A39U G44C C50G C70U] is lower in “self-cleavage kobs at 2500 uM GlcN6P” value: 4.75e-05 ± 1.6e-05 s⁻¹ for the first, under 1e-05 s⁻¹ for the second.

AUAAAAGCGCCAGAACUACAGAAAUGUAGUUGACGAGAAGGAGGUUUAUCGAAUUGUCGGCGGAUGCCUCCAAA [G38A U56G] and AUAAAAGCGCCAGAACUACAGAAAUGUAGUUGACGAUCAGGAGGUUUAUCGAAUCUUCGGCGGAUGCCUCCAAA [G37U G38C U55C] cannot be ordered by “self-cleavage kobs at 2500 uM GlcN6P” value: under 1e-05 s⁻¹ for the first, under 1e-05 s⁻¹ for the second.

AUAAAAGCGCCAGAACUACAGAAAUGUAGUUGACAAGGAUGAGGUUUAUCAAAUUUUCGGCGGAUGCCGCCAAA [G35A G40U G51A U69G] and AUAAAAGCGCCAGAACUACAGAAAUGUAGUUGACGCGGAGGAGGUUGAUCGGAUUUUCGCCGGAUGCCUCCAAA [A36C U47G A52G G60C] cannot be ordered by “self-cleavage kobs at 2500 uM GlcN6P” value: under 1e-05 s⁻¹ for the first, under 1e-05 s⁻¹ for the second.

Compared with AUAAAAGCGCCAGAACUACAGAAAUGUAGUUGACGCGGAGGAGGUUUAUCGAAUUUUCGGGGUAUGCAUCCAAA [A36C C61G G63U C68A], AUAAAAGCGCCAGAACUACAGAAAUGUAGUUGACGAAGAGGACGUUUAUCGAAUUUUGGGCGGAUGCCUCCAAA [G37A G43C C58G] is lower in “self-cleavage kobs at 2500 uM GlcN6P” value: 0.000112 ± 3.9e-05 s⁻¹ for the first, under 1e-05 s⁻¹ for the second.

Compared with AUAAAAGCGCCAGAACUACAGAAAUGUAGUUGACGACGAGGAGGUUUAUCGAAUUUUCGGCGGAUGUCUCAAAA [G37C C67U C71A], AUAAAAGCGCCAGAACUACAGAAAUGUAGUUGACGAGUAGUAGGUUUAUCGAAUUUUCCGCGGAAGCCUCCAAA [G38U G41U G59C U65A] is lower in “self-cleavage kobs at 2500 uM GlcN6P” value: 5.9e-05 ± 2.4e-05 s⁻¹ for the first, under 1e-05 s⁻¹ for the second.

Compared with AUAAAAGCGCCAGAACUACAGAAAUGUAGUUGACCACGAGGAGGUUUAUCGAAAUUUCGGCGGAUUCCUCCAAA [G35C G37C U54A G66U], AUAAAAGCGCCAGAACUACAGAAAUGUAGUUGACGUGGAGGAGGUUUAUCGAAUUUUCGGCGGAUGCCGCAAAA [A36U U69G C71A] is higher in “self-cleavage kobs at 2500 uM GlcN6P” value: under 1e-05 s⁻¹ for the first, 0.000556 ± 0.00021 s⁻¹ for the second.

AUAAAAGCGCCAGAACUACAGAAAUGUAGUUGACGAUGAGGAGUUUUAUCGAAUUUUCAGCGGAUGCCUUCAAA [G37U G44U G59A C70U] and AUAAAAGCGCCAGAACUACAGAAAUGUAGUUGACGUGGAGGAGGUUUUUCGAAUUCUCGGCGGAUGCCUCCAAA [A36U A48U U56C] cannot be ordered by “self-cleavage kobs at 2500 uM GlcN6P” value: under 1e-05 s⁻¹ for the first, under 1e-05 s⁻¹ for the second.

AUAAAAGCGCCAGAACUACAGAAAUGUAGUUGACGAUGAGGAGGUUUAUCGACUUUUCGGCGGAUGCCUCCAAA [G37U A53C] and AUAAAAGCGCCAGAACUACAGAAAUGUAGUUGAGGAGAAGGAGUUUUAUCGAAUUUUCGGCGAAUGCCUCCAAA [C34G G38A G44U G63A] cannot be ordered by “self-cleavage kobs at 2500 uM GlcN6P” value: under 1e-05 s⁻¹ for the first, under 1e-05 s⁻¹ for the second.

First: AUAAAAGCGCCAGAACUACAGAAAUGUAGUUGUAGAGAAGGAGGUUUAUAGAAUUUUCGGCGGAUGCCUGCAAA [A33U C34A G38A C50A C70G]
Second: AUAAAAGCGCCAGAACUACAGAAAUGUAGUUGACGAAGACGGGGUUUAUCGAAUUUUCGGCGGAUGCCUCCAAA [G37A G40C A42G]
The “self-cleavage kobs at 2500 uM GlcN6P” value of the first is 12-fold higher: 0.00153 ± 0.0004 s⁻¹ for the first, 0.000126 ± 4.4e-05 s⁻¹ for the second.

AUAAAAGCGCCAGAACUACAGAAAUGUAGUUGACGCGGAGUAUGUUUAUCCAAUUUUGGACGGAUGACUCCAAA [A36C G41U G43U G51C C58G G60A C67A] and AUAAAAGCGCCAGAACUACAGAAAUGUAGUUGAAGUGGAGGAGGUUUAUCGGAUUUUCGGCGGAUGCCUCCAAA [C34A A36U A52G] cannot be ordered by “self-cleavage kobs at 2500 uM GlcN6P” value: under 1e-05 s⁻¹ for the first, under 1e-05 s⁻¹ for the second.

AUAAAAGCGCCAGAACUACAGAAAUGUAGUUGACGACGAGCAGGUUCAUCGAAUUUUCUGCGGAUGCCUCCAAA [G37C G41C U47C G59U] and AUAAAAGCGCCAGAACUACAGAAAUGUAGUUGACCAGGAGGAGGUUUAUCGAGUUUUCGGCGGAUGCCUCUAAA [G35C A53G C71U] cannot be ordered by “self-cleavage kobs at 2500 uM GlcN6P” value: under 1e-05 s⁻¹ for the first, under 1e-05 s⁻¹ for the second.

AUAAAAGCGCCAGAACUACAGAAAUGUAGUUGACUAGGAGGAGGUUUAUCGAAUUUUGGGCGGUUGCCUCCAAA [G35U C58G A64U] and AUAAAAGCGCCAGAACUACAGAAAUGUAGUUGACCAGGAGGAGGUUUGUCUAAUUUGCGUCGGAUGCCUCCAAA [G35C A48G G51U U57G G60U] cannot be ordered by “self-cleavage kobs at 2500 uM GlcN6P” value: under 1e-05 s⁻¹ for the first, under 1e-05 s⁻¹ for the second.

AUAAAAGCGCCAGAACUACAGAAAUGUAGUUGACGUGGAGGAGGUUUAUCGAAUCUUGGGCGGAUGCCUCCAAA [A36U U55C C58G] and AUAAAAGCGCCAGAACUACAGAAAUGUAGUUGACGUGCAGGAGGUUUAUCGAAUUUUCGGCGGAUGCCCCCAAA [A36U G38C U69C] cannot be ordered by “self-cleavage kobs at 2500 uM GlcN6P” value: under 1e-05 s⁻¹ for the first, under 1e-05 s⁻¹ for the second.

AUAAAAGCGCCAGAACUACAGAAAUGUAGUUGAAGAGGACGAGGUCAAUCGAAUUUUCCGCGGAUGCCUCCAAA [C34A G40C U46C U47A G59C] and AUAAAAGCGCCAGAACUACAGAAAUGUAGUUGGCGAGGAGGAGGUUGAUCGAAUUUUCGGCGGAUACCUCCAAA [A33G U47G G66A] cannot be ordered by “self-cleavage kobs at 2500 uM GlcN6P” value: under 1e-05 s⁻¹ for the first, under 1e-05 s⁻¹ for the second.

AUAAAAGCGCCAGAACUACAGAAAUGUAGUUGAGGAGGAGGAGGUUUAUCGAAUUUUAGGCGGAUGCCUCUAAA [C34G C58A C71U] and AUAAAAGCGCCAGAACUACAGAAAUGUAGUUGAUGAGGACGAAGUUUAUCGAAUUUUCGGCGGAUGCCUCCAAA [C34U G40C G43A] cannot be ordered by “self-cleavage kobs at 2500 uM GlcN6P” value: under 1e-05 s⁻¹ for the first, under 1e-05 s⁻¹ for the second.

Going from AUAAAAGCGCCAGAACUACAGAAAUGUAGUUGUCGAGGACGAGGUGUAUUGAAUUUUCGGCGGAUGCCUCCAAA [A33U G40C U46G C50U] to AUAAAAGCGCCAGAACUACAGAAAUGUAGUUGACGAAGAGGAGGUUUAUCGAUUGUUCGGCGGAUGCCUCCAAA [G37A A53U U55G], the “self-cleavage kobs at 2500 uM GlcN6P” value rises from under 1e-05 s⁻¹ to 0.000444 ± 9.3e-05 s⁻¹.

Variants of: B1
Assay: self-cleavage kobs at 10000 uM GlcN6P; higher = faster cleavage; RNA array
Settings: with glucosamine-6-phosphate
Procedure, shortened: as §1

Going from AUAAAAGCGCCAGAACUACAGAAAUGUAGUUGACGUGGAGGAGGUUUAUCGAAUUUUCGGCGGAUGCCGCAAAA [A36U U69G C71A] to AUAAAAGCGCCAGAACUACAGAAAUGUAGUUGACGAUGAGGAGGUUUAUCGACUUUUCGGCGGAUGCCUCCAAA [G37U A53C], the “self-cleavage kobs at 10000 uM GlcN6P” value falls from 5.84e-05 ± 1.8e-05 s⁻¹ to under 1e-05 s⁻¹.

For AUAAAAGCGCCAGAACUACAGAAAUGUAGUUGACCAGGAGGAGGUUUAUCGAGUUUUCGGCGGAUGCCUCUAAA [G35C A53G C71U], the “self-cleavage kobs at 10000 uM GlcN6P” value was under 1e-05 s⁻¹.
